Source: patent US20210364527A1 (QUANTUM SI, published 2021)
Like-named read-outs stand apart in the source and are kept apart here. Primed or numbered codes have the meaning given here. Ends that are not written are not given here. FITC′ = not defined here

What was measured:
[1] = biological target: T1, LA peptide LAKLDEESILKQK (XAKLDEESILKQK, X = L); experiment: BLI heatmap
T1 construct: Immobilized on the biolayer interferometry sensor
T1 peptide: LAKLDEESILKQK

[2] = biological target: T2, IA peptide IAKLDEESILKQK (XAKLDEESILKQK, X = I); experiment: BLI heatmap
T2 construct: Immobilized on the biolayer interferometry sensor
T2 peptide: IAKLDEESILKQK

[3] = biological target: T3, W peptide WAKLDEESILKQK (XAKLDEESILKQK, X = W); experiment: BLI heatmap
T3 construct: Immobilized on the biolayer interferometry sensor
T3 peptide: WAKLDEESILKQK

[4] = biological target: T4, Y peptide YAKLDEESILKQK (XAKLDEESILKQK, X = Y); experiment: BLI heatmap
T4 construct: Immobilized on the biolayer interferometry sensor
T4 peptide: YAKLDEESILKQK

[5] = biological target: T5, F peptide FAKLDEESILKQK (XAKLDEESILKQK, X = F); experiment: BLI heatmap
T5 construct: Immobilized on the biolayer interferometry sensor
T5 peptide: FAKLDEESILKQK

[6] = biological target: T6, VA peptide VAKLDEESILKQK (XAKLDEESILKQK, X = V); experiment: BLI heatmap
T6 construct: Immobilized on the biolayer interferometry sensor
T6 peptide: VAKLDEESILKQK

[7] = biological target: T1, LA peptide LAKLDEESILKQK …; experiment: BLI heatmap
[8] = biological target: T2, IA peptide IAKLDEESILKQK …; experiment: BLI heatmap
[9] = biological target: T5, F peptide FAKLDEESILKQK (XAKLDEESILKQK, …); experiment: BLI heatmap
[10] = biological target: T6, VA peptide VAKLDEESILKQK …; experiment: BLI heatmap
[11] = biological target: T7, RA peptide (N-terminal arginine, penultimate alanine; rest of sequence not given); experiment: fluorescence polarization
T7 peptide: RAKLDEESILKQK-{FITC′}

| Binder | binding result [1] | binding result [2] | binding result [3] | binding result [4] | binding result [5] | binding result [6] | binding result [7] | binding result [8] | binding result [9] | binding result [10] | Kd [11] [nM] |
| --- | --- | --- | --- | --- | --- | --- | --- | --- | --- | --- | --- |
| PS406 (other) MPDATTTPRTKTLTRTARPPLHKVILVNDDFTPREFVVRLLKAEFRTTGDEAQRIMITAHMKGSCVVAVFTREIAESKATRATETARAEGFPLLFTTEPEE | no binding | no binding | binds | binds | binds | no binding | – | – | – | – | – |
| PS368 (other) MASAPSTTLDKSTQVVKKTYPNYKVIVLNDDLNTFDHVANCLIKYIPDMTTDRAWELTNQVHYQGQAIVWTGPQEQAELYHQQLRREGLTMAPLEAA | binds | no binding | binds | binds | binds | no binding | – | – | – | – | – |
| PS435 (other) MTLSVALGPDTQESTQTGTAVSTDTLTAPDIPWNLVIWNDPVNLMSYVSYVFQSYFGYSETKANKLMMEVHKKGRSIVAHGSKEQVEQHAVAMHGYGLWATVEKATGGNSGGGKSGGPGKGKGKRG | binds | no binding | binds | binds | binds | no binding | – | – | – | – | – |
| PS391 (other) MGQTVEKPRVEGPGTGLGGSWRVIVRNDDHNTFDHVARTLARFIPGVSLERGHEIAKVIHTTGRAVVYTGHKEAAEHYWQQLKGAGLTMAPLEQG | binds | – | – | binds | binds | – | – | – | – | – | – |
| PS369 (other) MTSTLRARPARDTDLQHRPYPHYRIIVLDDDVNTFQHVVNCLVTFLPGMTRDQAWAMAQQVDGEGSAVVWTGPQEQAELYHVQLGNHGLTMAPLEPV | binds | – | – | binds | binds | – | – | – | – | – | – |
| PS377 (other) MADISKSRPEIGGPKGPQFGDSDRGGGVAVITKPVTKKKFKRKSQTEYEPYWHVLLHHDNVHTFEYATGAIVKVVRTVSRKTAHRITMQAHVSGVATVTTTWKAQAEEYCKGLQMHGLTSSIAPDSSFTH | no binding | no binding | binds | no binding | – | no binding | – | – | – | – | – |
| PS574 (other) MANATPTPDVVPEEETETRTRRQPPYAVVLHNDDTNTMDFVVTVLRKVFGYTVEKCVELMLEAHTQGKVAVWIGALEVAELKADQIKSFGPDPHVTKNGHPLGVTVEPAA | – | – | – | – | – | – | no binding | no binding | binds | no binding | – |
| PS373 (other) MNRIKQEAVRTENLLICSESIRRTPGTMSNEESMFDEVVAVAVAEPETQHDERRGTKPKRQPPYHVILWDDTDHSFDYVIMMMKRLFRMPIEKGFQVAKEVDSSGRAICMTTTLELAELKRDQIHAFGKDELLPRCKGSMSATIEPAEG | no binding | no binding | no binding | no binding | no binding | no binding | – | – | – | – | – |
| PS564 (other) MFEEVVSVAVAEPKTKKQSRTKPKRQPPYHVILWDDTDHTFDYVIKMMGELFRMPREKGYQLAKEVDTSGRAICMTTTLELAELKRDQIHAFGRDDASAHCKGSMSATIEPAEG | – | – | – | – | – | – | no binding | no binding | no binding | no binding | – |
| PS561 (other) MAELQTAVVEPTTRPEQDEKQSQSRPKRQPRYNVILWDDPDHSYDYVIMMLKELFGHPRQRGHQMAEEVDTTGRVICLTTTMEHAELKRDQIHAYGSDEGITRCKGSMSASIEPVPE | – | – | – | – | – | – | no binding | no binding | no binding | no binding | – |
| PS562 (other) MSDQQSMVAEPEVVVHTQDEKKLEKQNKRKKQPRYNVVLWDDTDHSYDYVVLMMKQLFHHPIETGFQIAKQVDKGGKAICLTTTMEHAELKRDQIHAFGKDDLIARCTGSMSATIEPVPE | – | – | – | – | – | – | no binding | no binding | no binding | no binding | – |
| PS567 (other) MADYEDAGEDALEDDFDHGTVTVAPQKPEPKKQSENKRQANRQPRYNVLLWDSEDHTFEYVEKMLRELFGHIKKQCQIIAEQVDQEGRAVVLTTTLEHAELKRDQIHAYGKDQLEGSKGSMWSTIEAVD | – | – | – | – | – | – | no binding | no binding | no binding | no binding | – |
| PS379 (other) MSTQEEVLEEVKTTTQKENEIVLYNDDYNTFDHVIETLIYACEHTPVQAEQCAILVHYKGKCTVKTGSFDELKPRCSKLLEEGLSAEIV | no binding | no binding | no binding | no binding | no binding | no binding | – | – | – | – | – |
| PS381 (other) MVAFSKKWKKDELDKSTGKQKMLILHNDSVNSFDYVIKTLCEVCDHDTIQAEQCAFLTHFKGQCEIAVGEVADLVPLKNKLLNKNLIVSIH | no binding | no binding | no binding | no binding | no binding | no binding | – | – | – | – | – |
| PS429 (other) MSVQEEVLEEVKTKERVNKQNQIIVFNDDVNTFDHVIDMLIATCDHDPIQAEQCTMLIHYKGKCEVKTGDYDDLKPRCSKLLDAGISAEIQ | no binding | no binding | no binding | no binding | – | no binding | – | – | – | – | – |
| PS431 (other) MIISSVKSSPSTETLSRTELQLGGVWRVVVLNDPVNLMSYVMMIFKKIFGFNETVARRHMLEVHEKGRSVVWSGLREKAEAYVFTLQQWHLTAVLESDETH | no binding | no binding | no binding | no binding | – | no binding | – | – | – | – | – |
| PS690 (Bis-PS621, Linker 1) (designed binder, Single polypeptide; the entry includes the C-terminal His/bis-biotinylation tag) MHSKFSHAGRICGAKFKVGEPIYRCKECSFDDTCVLCVNCFNPKDHTGHHVYTTICTEFNNGICDCGDKEAWNHTLFCKAEEGGGGSGGGSGGGSGMHSKFSHAGRICGAKFKVGEPIYRCKECSFDDTCVLCVNCFNPKDHTGHHVYTTICTEFNNGICDCGDKEAWNHTLFCKAEEGGGSHHHHHHHHHHGGGSGGGSGGGSGLNDFFEAQKIEWHEGGGSGGGSGGGSGLNDFFEAQKIEWHE | – | – | – | – | – | – | – | – | – | – | 354 |
| PS691 (Bis-PS621, Linker 2) (designed binder, Single polypeptide; the entry includes the C-terminal His/bis-biotinylation tag) MHSKFSHAGRICGAKFKVGEPIYRCKECSFDDTCVLCVNCFNPKDHTGHHVYTTICTEFNNGICDCGDKEAWNHTLFCKAEEGGSAGSAAGSGEFMHSKFSHAGRICGAKFKVGEPIYRCKECSFDDTCVLCVNCFNPKDHTGHHVYTTICTEFNNGICDCGDKEAWNHTLFCKAEEGGGSHHHHHHHHHHGGGSGGGSGGGSGLNDFFEAQKIEWHEGGGSGGGSGGGSGLNDFFEAQKIEWHE | – | – | – | – | – | – | – | – | – | – | 369 |
| PS692 (Bis-PS621, Linker 3) (designed binder, Single polypeptide; the entry includes the C-terminal His/bis-biotinylation tag) MHSKFSHAGRICGAKFKVGEPIYRCKECSFDDTCVLCVNCFNPKDHTGHHVYTTICTEFNNGICDCGDKEAWNHTLFCKAEEGGSAGSAAGSGEFGSAGSAAGSGEFGSAGSAAGSGEFMHSKFSHAGRICGAKFKVGEPIYRCKECSFDDTCVLCVNCFNPKDHTGHHVYTTICTEFNNGICDCGDKEAWNHTLFCKAEEGGGSHHHHHHHHHHGGGSGGGSGGGSGLNDFFEAQKIEWHEGGGSGGGSGGGSGLNDFFEAQKIEWHE | – | – | – | – | – | – | – | – | – | – | 478 |
| PS693 (Bis-PS528, Linker 1) (designed binder, Single polypeptide; the entry includes the C-terminal His/bis-biotinylation tag) MHSKFNHAGRICGAKFRVGEPIYRCKECSFDDTCVLCVNCFNPKDHVGHHVYTSICTEFNNGICDCGDKEAWNHELNCKGAEDGGGSGGGSGGGSGMHSKFNHAGRICGAKFRVGEPIYRCKECSFDDTCVLCVNCFNPKDHVGHHVYTSICTEFNNGICDCGDKEAWNHELNCKGAEDGGSHHHHHHHHHHGGGSGGGSGGGSGLNDFFEAQKIEWHEGGGSGGGSGGGSGLNDFFEAQKIEWHE | – | – | – | – | – | – | – | – | – | – | 263 |
